Experiment: soluble on expression in E. coli; label from the status in PepcDB or PDB records

Sequence | soluble on expression in E. coli
MGSDKIHHHHHHMELKLERHPANPILEPSPYFLWESRFVFNPAVVYDGELFHLLYRAQGEDMVSRIGYAVSTDGIHFNKFEKPVFAPKSDDELYGVEDPRITKIGDEYYMVYTAYSPRGVRIAMASTKNFITWKRYGVVIPEVDNKDAALFPEKINGKYVMFHRIPPDMWLAFSDDLVHWDNFVKIASPRPGMWDDLKIGVGAPPIKTEYGWLVLYHGVQNTGTSRPIYRLGFMLLDLEDPTKVIKRSKEPILEPEEDWEKFGGVPNVVFSDAMIEYNGYYYVYYGAADNCIALATIPVEKVMKWCRE | not soluble
DRFSTAVLALSLFQGAYTAEIFRAGLNSIPKGQFEAAQTLGLSPFYTYKDVILPQVLQRTLPPLTNEVVSLIKNSSIVSVMAIFDLTTQARNIVSETAMPFE | not soluble
MVNVAVNGYGTIGKRVADAIIKQPDMKLVGVAKTSPNYEAFIAHRRGIRIYVPQQSIKKFEESGIPVAGTVEDLIKTSDIVVDTTPNGVGAQYKPIYLQLQRNAIFQGGEKAEVADISFSALCNYNEALGKKYIRVVSCNTTALLRTICTVNKVSKVEKVRATIVRRAADQKEVKKGPINSLVPDPATVPSHHAKDVNSVIRNLDIATMAVIAPTTLMHMHFINITLKDKVEKKDILSVLENTPRIVLISSKYDAEATAELVEVARDLKRDRNDIPEVMIFSDSIYVKDDEVMLMYAVHQESIVVPENIDAIRASMKLMSAEDSMRITNESLGILKGYLI | soluble
MTFRGPSPPRFGHSMDLPAYAIEAEGLYKTYAGTKTSPEKRALNGIDLKIPRGSIFGLLGPNGAGKSTFINILAGLVRKSSGTVRIWGRDIDQRPRDARAAIGVVPQELAADVFFTPRESLEVQAGFYGVPKSERRTDELLNALGLGDKAGAYVRQLSGGMKRRLMVAKAMVHQPPVLILDEPTAGVDVELRRQLWQYVTSLNELGVTIVLTTHYLEEAQELCDEIAIINRGEVVACEPTAKLLSRMDSRNVVVTPESPVTAAPVLEGFDTKLRSGGAFSVSYRTGQSSVEQVLAAVRASGLHIKDIATEDPDLEDVFVALTYGDPNAADPTKDLEHHHHHH | not soluble
MGSSHHHHHHSSGLVPRGSMAELSEEALLSVLPTIRVPKAGDRVHKDECAFSFDTPESEGGLYICMNTFLGFGKQYVERHFNKTGQRVYLHLRRTRRPKEEDPATGTGDPPRKKPTRLAIGVEGGFDLSEEKFELDEDVKIVILPDYLEIARDGLGGLPDIVRDRVTSAVEALLSADSASRKQEVQAWDGEVRQVSKHAFSLKQLDNPARIPPCGWKCSKCDMRENLWLNLTDGSILCGRRYFDGSGGNNHAVEHYRETGYPLAVKLGTITPDGADVYSYDEDDMVLDPSLAEHLSHFGIDMLKMQKTDKTMTELEIDMNQRIGEWELIQESGVPLKPLFGPGYTGIRNLGNSCYLNSVVQVLFSIPDFQRKYVDKLEKIFQNAPTDPTQDFSTQVAKLGHGLLSGEYSKPVPESGDGERVPEQKEVQDGIAPRMFKALIGKGHPEFSTNRQQDAQEFFLHLINMVERNCRSSENPNEVFRFLVEEKIKCLATEKVKYTQRVDYIMQLPVPMDAALNKEELLEYEEKKRQAEEEKMALPELVRAQVPFSSCLEAYGAPEQVDDFWSTALQAKSVAVKTTRFASFPDYLVIQIKKFTFGLDWVPKKLDVSIEMPEELDISQLRGTGLQPGEEELPDIAPPLVTPDEPKAPMLDESVIIQLVEMGFPMDACRKAVYYTGNSGAEAAMNWVMSHMDDPDFANPLILPGSSGPGSTSAAADPPPEDCVTTIVSMGFSRDQALKALRATNNSLERAVDWIFSHIDDLDAEAAMDISEGRSAADSISESVPVGPKVRDGPGKYQLFAFISHMGTSTMCGHYVCHIKKEGRWVIYNDQKVCASEKPPKDLGYIYFYQRVAS | soluble
MGSDKIHHHHHHAQLVERVCRTDYKISPERKGELLLELDNISFFKDNEFAGTVIKGYSLPGLWIQPKFVYYPLKNIKLEGGVHMLWFSGAYRYPSVSYQDIALWKGEQYQKGAHLLPFFRAQISMKSVDLILGNIYGGSNHGLIAPLYNPELNLTADPETGFQVLAGAPWIDLDAWIDWQSFIFRDDTHQEAFTVGLSTRFKLNAPSSTFHCYIPLQILAQHRGGEIDTIRESSVQTLMNGAVGAGVTWNIDRRILKRVNVELDAAGYYQQKGELWPYHKGIGVYSSAFVDLGNFRVKMGHWICNDFITMFGIPYFGTVSTKKEGITYDKPQTLFCSIEYSRMFGKHYALGLKADAYQFFPGTMRSANGELTSPGSTTSFSVGVYFRINPSFLLKKF | not soluble
MKKGINRVVLVGTGAVGCSYAYCMINQAVAEEFVLVDVNEAKAEGEAMDLSHAVPFAPAPTRVWKGSYEDCKDADLVVITAGLPQKPGETRLDLVEKNAKIFKQIVRSIMDSGFDGIFLIATNPVDILTYVTWKESGLPKERVIGSGTTLDSARFRYMLGEYFNIGPHNIHAYIIGEHGDTELPVWSHVSVGIQKLQTLLEKDNTYNQEDLDKIFINVRDAAYHIIERKGATYYGIGMSLLRVTKAILNDENSVLTVSAYLEGQYGQKDVYIGVPAVLNRGGVREILEVELSEDEELKFDHSVQVLKETMAPVL | not soluble
ESRSQISRRNQDMLLSVLDLEKVSVNDIMVPRNEIVGIDINDDWKSIVRQLTHSPHGRIVLYRDSLDDAISMLRVREAYRLMTEKKEFTKEIMLRAADEIYFVPEGTPLSTQLVKFQRNKKKVGLVVDEYGDIQGLVTVEDILEEIVGDFTTSMSPTLAEEVTPLNDGTVIIDGSANVREINKAFNWHLPEDEARTVNGII | soluble
SGEVEISARAYGKMCLHASRYPHAAVNGLLLAPATGSGECLCLTDCVPLFHSHLALSVMLEVALNQVDVWGAQAGLVVAGYYHANAVLDDQSPGPLALKIAGRIAEFFPRAVLIMLDNKKLVTRPRVPPVIVLENQGLQWVPKDKNLVMWRDWEESRQMVGALLEGRAHQHLVDFDCHLDDIRQDWTNQRLNTQITQWSGSTDGNA | soluble
TGKVHWSDELFNIFGRDPQKSAANYEELLNYIHPDDRDFVDGIIRNSFTGKRYGIDYRIIRDNGEERTVHAEKELIFDRN | not soluble
GPGSMMASFTPLDNFKSRSRGVMPTGIVIDKSCRVYVTQIPLERIERDGASAMKSEFEVYGPLESYKMFTDRSGRFIGSALCTYRNPADASMAVYCMDGVEVEGSTLHVEPAKEHGVVLLASGSSSGGNGQHRDHSRGFLRDTQRQWGRGGRGGAGLLGAGRGSGYSTTGREDASNTSELDLCAEELGLAATDGVSPSAANGKWSHDKYEMMAEGKDMDEVLG | not soluble
MSLTRICIVGAGAVGGYLGARLALAGEAVNVLARGATLQALQTAGLRLTEDGATHTLPVRATHDAVALGEQDVVIVAVKAPALESVAAAIAPLIGPGTCVVVAMNGVPWWFFDRPGPLQGQRLQAVDPHGRIAQAIPTRHVLGCVVHLTSATASPGHIRHGNGRRLILGEPAGGASPRLASIAALFGRAGLQAECSEAIQRDIWFKLWGNMTMNPVSVLTGATCDRILDDPLVSAFCLAVMAEAKAIGARIGCPIEQSGEARSAVTRQLGAFKTSMLQDAEAGRGPLEIDALVASVREIGRHVGVPTPQIDTLLGLVRLHAQTRGLYEGHHHHHH | soluble
MVIINTAAYHFVSITQPQTLADQIRAHGEIAGLKGTVLIANEGINLFLAGEKEAINAFYAWLCADVRFAALHVKYSVSAYKPFARFKVKVRPEIISFRRGDISPLQVRAPGVSAHTLRDWLRRGCDDNGRRLVMLDARNQQEIAYGTFSGAMTLPITKFTGFPGALAHYRDLLSDATVVSFCTGGIRCEKAVLWMRADGMDNVLQLEGGILGYFEQVGGEGYDGRCFVFDKRVALDPQLRPLYDMRVVASFARSEISLEHHHHHH | not soluble
MSQYIYELEMKVRDYECDLQGIVNNANYQHYLEHTRHEFLTSVGVSFAALHEQGVDPVVARINMAFKTPLKSGDEFVSKLYMKKEGIKYVFYQDIFRKSDQKVVVKSTVETVCVVNGRLSNSELFDNVFAPYLK | not soluble
MLPFANYYISSPSVSEKNAINNNVNKRRKKKRAMMVYGGGGGGDDLAVVKAAAWAWYLRKEGKPIMREFDVTRAQRIPRPSRYKIEATKNMILSENRVLAENRVSSTKSPLWYTNYQFRGDQETYYSRLLDTYETKNISKRLNIDDSSFSTSLSSVLKHNGDDHHNHNRNDDYGFDDHGLLKKRNGSDSNTTTRSKTNNDKSYNGGFMKKVSKRSLWKGMIVMGPGSTVCGRSDDVASQAGRRTVKVAVAAEALVRSAASGSGKTQSGHC | not soluble
MHIERLDFENSPYLGVFGVATDRVVLIREGLQEKKLEVIRETLKVPVIEVSVMKSRIIGTLATGNSNAIILPWYVWDAEIERIKKALSEYGIDMEVVPFRSKYTALGNLILTNDKAALVSAKFSRKEAQEIGEILGVEVERGVIAGLHAVGSAGVVTNKGGLVHPETSDEELEWLSDLFKVDVYVGTANMGVPYVGTCMLANSNGVVVGHLTTGPEIVKIEEALGFV | soluble
MSEDDPRPLHIRRQGLDPADELLAAGALTRVTIGSGADAETHWMATAHAVVRQVMGDHQQFSTRRRWDPRDEIGGKGIFRPRELVGNLMDYDPPEHTRLRRKLTPGFTLRKMQRMAPYIEQIVNDRLDEMERAGSPADLIAFVADKVPGAVLCELVGVPRDDRDMFMKLCHGHLDASLSQKRRAALGDKFSRYLLAMIARERKEPGEGMIGAVVAEYGDDATDEELRGFCVQVMLAGDDNISGMIGLGVLAMLRHPEQIDAFRGDEQSAQRAVDELIRYLTVPYSPTPRIAREDLTLAGQEIKKGDSVICSLPAANRDPALAPDVDRLDVTREPIPHVAFGHGVHHCLGAALARLELRTVFTELWRRFPALRLADPAQDTEFRLTTPAYGLTELMVAW | soluble
MQGQIIKALAGFYYVESDGQVYQTRARGNFRKKGHTPYVGDWVDFSAEENSEGYILKIHERKNSLVRPPIVNIDQAVVIMSVKEPDFNSNLLDRFLVLLEHKGIHPIVYISKMDLLEDRGELDFYQQTYGDIGYDFVTSKEELLSLLTGKVTVFMGQTGVGKSTLLNKIAPDLNLETGEISDSLGRGRHTTRAVSFYNLNGGKIADTPGFSSLDYEVSRAEDLNQAFPEIATVSRDCKFRTCTHTHEPSCAVKPAVEEGVIATFRFDNYLQFLSEIENRRETYKKVSKKIPK | not soluble
VGFAPELYCGLENCYDVLEVNREEFDKQKLAKAYRALARKHHPDRVKNKEEKLLAEERFRVIATAYETLKDDEAKTNYDYYLDHPDQRFYNYYQYYRLRAAPKVDL | soluble
MGHHHHHHSHLPTTNIGSFPQTTEIRHARASFKKGELSLADYEAAMKKEIEYVVRRQEELDLDVLVHGEAERNDMVEYFGELLDGFAFTKFGWVQSYGSRCVKPPVIYGDVTRPEPMTVRWSQYAQSLTNRVMKGMLTGPVTILQWSFVRNDIPRSTVCKQIGVALSDEVLDLEAAGIKVIQIDEPAIREGLPLKRADWDAYLQWAGEAFRLSSMGVQDDTQIHTHMCYSEFNDILPAIAALDADVITIETSRSDMELLTAFADFKYPNDIGPGVYDIHSPRVPTATEVEHLLRKALNVIPKERLWVNPDCGLKTRGWTETIDQLKVMVDVTKK | not soluble
MAHHHHHHMQRDVYASLIKKRHKQMVPLLIHQVSGDITRENIFDEVFHGYKLRRIVLMTHMAATPATLPRLPRDIIVSDFDKLKAIHQPHFHYKLLPLLCTDFEAFSALQGICASANSPFTIEDRKDPQGLTHRLSNGCSERQALCEFFDPHIAPAEKLVPVFSRKLPISAVVFDGLLLKQNYPKVAALLTVHEAASEKSIIERAIMRDFFVSPLYTKVSGNSDVAQSLRLVHHCTHFMALKRAVGSDAPSRQSLMRLAAEKKLFMYEKIGDEYQFVH | soluble
MVDMKTTHTSLPFAGHTLHFVEFDPANFCEQDLLWLPHYAQLQHAGRKRKTEHLAGRIAAVYALREYGYKCVPAIGELRQPVWPAEVYGSISHCGATALAVVSRQPIGVDIEEIFSAQTATELTDNIITPAEHERLADCGLAFSLALTLAFSAKESAFKASEIQTDAGFLDYQIISWNKQQVIIHRENEMFAVHWQIKEKIVITLCQHD | not soluble
